Test results from patent publication US8034904B2, “Anti-IGF-I receptor antibody” (Immunogen Inc., priority 2002, dated 2011).

Key:
[1] = system: Calu-6 non-small cell lung cancer cells; assay: Growth and survival of Calu-6 cells (MTT assay); assay type: cell-based, human
Experimental: (§1) Several human tumor cell lines were tested in serum-free conditions for their growth and survival response to IGF-I. These cell lines were treated with EM164 antibody in the presence of IGF-I, IGF-II, or serum, and their growth and survival responses were measured using an MTT assay after 2-4 days. Approximately 1500 cells were plated in a 96-well plate in regular medium with serum, which was replaced with serum-free medium the following day (either serum-free RPMI medium supplemented with transferrin and BSA, or phenol-red free medium as specified by Dufourny, B. et al., 1997, J. Biol. Chem., 272, 31163-31171). After one day of growth in serum-free medium, the cells were incubated with about 75 μL of 10 μg/mL antibody for 30 min.-3 h, followed by the addition of 25 μL of IGF-I (or IGF-II or serum) solution to obtain a final concentration of 10 ng/mL IGF-I, or 20 ng/mL IGF-II, or 0.04-10% serum. In some experiments, the cells were stimulated first with IGF-I for 15 min before the addition of EM164 antibody, or both IGF-I and EM164 antibody were added together. The cells were then allowed to grow for another 2-3 days. A solution of MTT (3-(4,5)-dimethylthiazol-2-yl)-2,5-diphenyltetrazolium bromide; 25 μL of a 5 mg/mL solution in PBS) was then added and the cells were returned to the incubator for 2-3 h. The medium was then removed and replaced by 100 μL DMSO, mixed, and the absorbance of the plate was measured at 545 nm.

A 431 (epidermoid) cells = assay: Growth and survival of A 431 cells (MTT assay); assay type: cell-based, human
Experimental: as §1

A 375 (melanoma) cells = assay: Growth and survival of A 375 cells (MTT assay); assay type: cell-based, human
Experimental: as §1

[2] = target: T1, IGF-I receptor of 3T3 cells (Mus musculus, UniProt Q60751); assay: Immunoprecipitation of IGF-I receptor from 3T3 cells; assay type: binding
T1 construct: endogenous in cells; host or cells: 3T3 cells (mouse)
Source text: (§2) A Western blot of the EM164 antibody immunoprecipitate was detected using a rabbit polyclonal anti-IGF-I receptor beta chain (C-terminus) antibody (Santa Cruz Biotechnology) and a goat-anti-rabbit-IgG-antibody-horseradish peroxidase conjugate, followed by washes and enhanced chemiluminescence (ECL) detection.

[3] = system: IGF-I receptor from cos-7 cells; assay: Immunoprecipitation of IGF-I receptor from cos-7 cells; assay type: binding; details: cos-7 cells (African green monkey)
Source text: as §2

[4] = target: T2, IGF-I receptor on NCI-H838 cells (Homo sapiens, UniProt P08069); assay: IGF-I displacement in NCI-H838 lung cancer cells; assay type: cell-based; details: 4° C., 2 h
T2 construct: endogenous in cells; host or cells: NCI-H838 lung cancer cells
Experimental: (§3) (or at 4° C.) for 1 to 2 h. […] (or at 4° C.) for 30 min to 4 h. Cells were then washed with PBS and lysed in lysis buffer containing 1% NP-40 at 4° C.

human IGF-I receptor = assay: FACS binding to cells overexpressing human IGF-I receptor; details: EM164 50-100 nM
Experimental: Incubation of EM164 antibody (50-100 nM) in 100 μL cold FACS buffer (1 mg/mL BSA in Dulbecco's MEM medium) was performed using cells overexpressing IGF-I receptor and using cells overexpressing insulin receptor (2×10^5 cells/mL) in a round-bottom 96-well plate for 1 h. The cells were pelleted by centrifugation and washed with cold FACS buffer by gentle flicking, followed by incubation with goat-anti-mouse-IgG-antibody-FITC conjugate (100 μL; 10 μg/mL in FACS buffer) on ice for 1 h. The cells were pelleted, washed, and resuspended in 120 μL of 1% formaldehyde solution in PBS. The plate was analyzed using a FACSCalibur reader (BD Biosciences).

[5] = system: Human pancreatic cancer BxPC-3 xenografts; assay: BxPC-3 pancreatic cancer xenograft in SCID/ICR mice; assay type: in vivo, mouse
Experimental: Human pancreatic cancer xenografts were established in 5 week-old, female SCID/ICR mice (Taconic) by subcutaneous injections of 10^7 BxPC-3 cells in PBS (day 0). The mice bearing established tumors of 80 mm^3 were then treated with EM164 alone (13 injections of 0.8 mg/mouse, i.v., lateral tail vein, on days 12, 16, 19, 23, 26, 29, 36, 43, 50, 54, 58, 61 and 64), with gemcitabine alone (two injections of 150 mg/kg/mouse, i.p., on days 12 and 19), with a combination of gemcitabine and. EM164 following the above schedules, PBS alone, and a control antibody alone (following the same schedule as EM164) using five mice in each of the five treatment groups.

[6] = target: T3, IGF-I receptor on MCF-7 cells (Homo sapiens, UniProt P08069); assay: IGF-I displacement assay in MCF-7 cells; assay type: cell-based
T3 construct: human breast cancer MCF-7 cells, which expressed IGF-I receptor; endogenous in cells; host or cells: MCF-7 human breast cancer cells
Experimental: as §3

[7] = system: A-673 human rhabdomyosarcoma/Ewing's sarcoma xenografts; assay: A-673 xenograft in mice; details: mouse, in vivo
[8] = target: T3, IGF-I receptor on MCF-7 cells; assay: Inhibition of binding of biotinylated IGF-I to MCF-7 cells; assay type: cell-based; details: 5 μg/mL antibody, 2 h; 50 ng/mL biotinylated IGF-I, 20 min, 37° C.
Experimental: The binding of IGF-I to human breast cancer MCF-7 cells was inhibited by EM164 antibody (FIG. 3). […] The cells were then washed twice with serum-free medium to remove unbound biotin-IGF-I, and were then lysed in 50 mM HEPES, pH 7.4, containing 1% NP-40 and protease inhibitors. An Immulon-2HB ELISA plate was coated with a mouse monoclonal anti-IGF-I receptor beta chain antibody and was used to capture the IGF-I receptor and bound biotin-IGF-I from the lysate. […] The wells were washed, incubated with streptavidin-horseradish peroxidase conjugate, washed again, and then detected using ABTS/H2O2 substrate.

[9] = 5-10 μg/mL EM164, 10 ng/mL IGF-I
[10] = 5-10 μg/mL EM164, MTT or colony formation assay

T1 sequence (Q60751 31-1373): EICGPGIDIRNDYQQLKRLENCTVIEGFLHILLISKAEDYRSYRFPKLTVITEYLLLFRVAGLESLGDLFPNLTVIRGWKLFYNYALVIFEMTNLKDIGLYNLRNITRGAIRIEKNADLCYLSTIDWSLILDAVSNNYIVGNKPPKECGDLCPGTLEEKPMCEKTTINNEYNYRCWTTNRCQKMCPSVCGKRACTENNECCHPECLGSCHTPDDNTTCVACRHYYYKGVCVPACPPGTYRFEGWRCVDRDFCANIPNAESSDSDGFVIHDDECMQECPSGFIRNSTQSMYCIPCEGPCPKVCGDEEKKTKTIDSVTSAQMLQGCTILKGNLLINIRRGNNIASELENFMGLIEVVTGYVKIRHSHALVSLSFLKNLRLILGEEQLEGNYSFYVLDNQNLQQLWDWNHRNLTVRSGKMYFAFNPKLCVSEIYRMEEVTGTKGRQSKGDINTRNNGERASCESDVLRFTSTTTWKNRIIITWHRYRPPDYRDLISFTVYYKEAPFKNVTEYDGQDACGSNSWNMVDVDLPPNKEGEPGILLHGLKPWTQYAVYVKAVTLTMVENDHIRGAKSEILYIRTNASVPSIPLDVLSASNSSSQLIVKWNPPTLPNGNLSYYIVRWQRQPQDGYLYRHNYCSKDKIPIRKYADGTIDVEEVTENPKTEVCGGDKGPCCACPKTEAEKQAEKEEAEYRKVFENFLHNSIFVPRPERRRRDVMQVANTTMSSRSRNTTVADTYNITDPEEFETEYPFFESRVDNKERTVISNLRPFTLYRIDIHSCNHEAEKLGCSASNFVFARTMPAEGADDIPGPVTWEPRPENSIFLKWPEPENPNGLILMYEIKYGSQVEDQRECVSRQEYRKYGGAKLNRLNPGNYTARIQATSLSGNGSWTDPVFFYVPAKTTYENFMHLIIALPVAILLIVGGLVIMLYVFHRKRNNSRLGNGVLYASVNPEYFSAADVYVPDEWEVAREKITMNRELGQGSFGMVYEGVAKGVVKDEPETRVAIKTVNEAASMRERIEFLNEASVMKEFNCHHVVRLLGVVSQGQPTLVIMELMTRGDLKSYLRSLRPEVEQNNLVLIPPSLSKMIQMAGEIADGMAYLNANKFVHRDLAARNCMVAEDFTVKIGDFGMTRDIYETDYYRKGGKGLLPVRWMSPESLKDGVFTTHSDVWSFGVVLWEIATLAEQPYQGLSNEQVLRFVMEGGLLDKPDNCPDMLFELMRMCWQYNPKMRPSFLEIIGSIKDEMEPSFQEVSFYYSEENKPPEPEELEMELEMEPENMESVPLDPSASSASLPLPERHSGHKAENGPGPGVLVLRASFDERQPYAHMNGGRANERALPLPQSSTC

B1: EM164: murine anti-IGF-I receptor monoclonal antibody, IgG1 with kappa light chain, hybridoma ATCC PTA-4457; heavy SEQ ID NO:7, light SEQ ID NO:8 (antibody)
heavy: QVQLQQSGAELVKPGASVKLSCKASGYTFTSYWMHWVKQRPGQGLEWIGEINPSNGRTNYNEKFKRKATLTVDKSSSTAYMQLSSLTSEDSAVYYFARGRPDYYGSSKWYFDVWGAGTTVTVSS
light: DVLMTQTPLSLPVSLGDQASISCRSSQSIVHSNVNTYLEWYLQKPGQSPKLLIYKVSNRFSGVPDRFSGSGSGTDFTLRISRVEAEDLGIYYCFQGSHVPPTFGGGTKLEIKR
modifications: antibody heavy chain; antibody light chain
Inhibition by EM164 antibody of IGF-I-stimulated growth in serum-free medium [1, 9]: 85%
% Inhibition by EM164 antibody of Growth/survival of cells in 1.25-10% serum [1, 10]: Yes
Inhibition by EM164 antibody of IGF-I-stimulated growth in serum-free medium (A 431 (epidermoid) cells; [9]): 85%
% Inhibition by EM164 antibody of Growth/survival of cells in 1.25-10% serum (A 431 (epidermoid) cells; [10]): Yes
Inhibition by EM164 antibody of IGF-I-stimulated growth in serum-free medium (A 375 (melanoma) cells; [9]): 90%
% Inhibition by EM164 antibody of Growth/survival of cells in 1.25-10% serum (A 375 (melanoma) cells; [10]): No
binding to IGF-I receptor (immunoprecipitation) [2]: did not bind
binding to IGF-I receptor (immunoprecipitation) [3]: also bound
decrease in the bound biotin-IGF-I [4]: 80%
fluorescence shift (FACS) (human IGF-I receptor): strong fluorescence shift
day on which measurable tumor regrowth was seen in more than one animal ([5]; BxPC-3 xenografts): 43 days
total regression of tumor xenografts (animals) ([5]; EM164 0.8 mg/mouse i.v. x13, gemcitabine 150 mg/kg i.p. days 12 and 19, five mice per group): 4 of 5
mean tumor volumes on day 74 in comparison with the control treatments ([5]; P=0.029 (EM164) and 0.002 (combination), two-tailed T-test): significantly smaller
growth of established BxPC-3 xenografts ([5]; another study, intraperitoneal injections): inhibited the growth
inhibition of the growth of established BxPC-3 xenografts, intraperitoneal vs intravenous administration ([5]; mouse, in vivo): equivalent inhibition
inhibition of the growth of established BxPC-3 xenografts, murine vs humanized ([5]; mouse, in vivo): equivalent inhibition
displacement of pre-bound biotinylated IGF-I ([6]; 4° C., 2 h): about 50%
displacement of pre-bound biotinylated IGF-I ([6]; 37° C., within 30 min): 90%
displacement of pre-bound biotinylated IGF-I ([6]; 37° C., within 4 h): ~100%
growth of established A-673 xenografts [7]: significant growth delay
inhibition of IGF-I binding to MCF-7 cells [8]: essentially quantitative
